Among the targets are GST-WASP(201–321) H246A (UniProt P42768); GST-WASP(201–321) K235A (UniProt P42768); GST-WASP(201–321) L270A (UniProt P42768); GST-WASP(201–321) K225A (UniProt P42768); GST-WASP(201–321) K226A (UniProt P42768); GST-WASP(201–321) K230A (UniProt P42768); GST-WASP(201–321) K231A (UniProt P42768); GST-WASP(201–321) K232A (UniProt P42768); GST-WASP(201–321) R227A (UniProt P42768).
Common to all, as to assay: scintillation proximity assay (SPA); 5 nM GST-WASP variant immobilised on protein A SPA fluoromicrospheres via an anti-GST antibody; varying concentrations of [3H]GTP·Cdc42; direct binding isotherm; apparent Kd; low-salt buffer
On the technique in general: SPA uses beads or plates that emit light when radiolabelled molecules are held near them.

Assay [1] deals with GST-WASP(201–321) K225A/K226A (UniProt P42768).
The target of assay [2] is GST-WASP(201–321) K225A/K226A/R227A (UniProt P42768).
Assay [3] concerns the target GST-WASP(201–321) K225A/K226A/R227A/K230A/K231A/K232A (UniProt P42768).
The target of assay [4] is GST-WASP(201–321) K225A/R227A (UniProt P42768).
Assay [5] concerns the target GST-WASP(201–321) K226A/R227A (UniProt P42768).
Assay [6] has as its target GST-WASP(201–321) K230A/K231A (UniProt P42768).
Assay [7] concerns the target GST-WASP(201–321) K230A/K231A/K232A (UniProt P42768).
The target of assay [8] is GST-WASP(201–321) K230A/K232A (UniProt P42768).
For assay [9], the target named is GST-WASP(201–321) K231A/K232A (UniProt P42768).
Assay [10] addresses GST-WASP(201–321) wild type (UniProt P42768).

In the case of “Cdc42 Δ7 Q61L (from UniProt P60953 1-191) (natural protein)”, the Kd with GST-WASP(201–321) H246A worked out at 0.0423 µM; with GST-WASP(201–321) K235A it was 0.008 µM; in the assay with GST-WASP(201–321) L270A, 0.0017 µM; with GST-WASP(201–321) K225A it was 2.8 µM; in assay [1], 7.4 µM; in assay [2], 8.8 µM. Further, the Kd in [3] amounted to 98.6 µM; in assay [4] it was 7.5 µM; in the assay with GST-WASP(201–321) K226A, 5.4 µM; in assay [5], 5.7 µM; with GST-WASP(201–321) K230A, 9.7 µM; in assay [6] it was 12.9 µM. The Kd in assay [7] was found to be 36 µM; in [8], 18.4 µM; in the assay with GST-WASP(201–321) K231A, 12.4 µM; in assay [9], 21.7 µM; in the assay with GST-WASP(201–321) K232A, 12.2 µM; in the assay with GST-WASP(201–321) R227A, 4.3 µM. Also, the Kd in [10] turned out to be 0.5 µM.

These data come from PMC6166713.
